Source: patent US20150344570A1 (published 2015)
Numbering of substitutions follows the chain as printed. Numbers in names are those of the source.

T1: FcgRIIaR (human, UniProt P12318 34-217)
T1 construct: extracellular domain; also called FcγRIIa R; FcgRIIa type R; not shown: His tag attached to the C terminus
T1 sequence (looked up): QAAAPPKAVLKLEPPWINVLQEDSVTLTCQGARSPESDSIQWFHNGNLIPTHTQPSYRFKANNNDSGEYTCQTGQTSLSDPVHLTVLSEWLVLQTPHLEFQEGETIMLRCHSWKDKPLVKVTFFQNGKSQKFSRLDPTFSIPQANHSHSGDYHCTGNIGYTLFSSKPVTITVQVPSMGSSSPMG

T2: FcgRIIaH (human, UniProt P12318 34-217)
T2 construct: extracellular domain; also called FcγRIIa H; FcgRIIa type H; not shown: His tag attached to the C terminus
T2 sequence (looked up): T1 sequence (looked up) with R134H

T3: FcgRIIb (human, UniProt P31994 43-217)
T3 construct: extracellular domain; also called FcγRIIb; 2b; not shown: His tag attached to the C terminus
T3 sequence (looked up): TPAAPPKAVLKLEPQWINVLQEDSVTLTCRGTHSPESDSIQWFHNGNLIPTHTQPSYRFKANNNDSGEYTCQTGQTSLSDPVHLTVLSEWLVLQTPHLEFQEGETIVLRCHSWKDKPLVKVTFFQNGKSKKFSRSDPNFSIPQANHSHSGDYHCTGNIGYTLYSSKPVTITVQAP

B1: H240-Kn032/H240-Hl032/L73-k0 (antibody, human IgG1, kappa)
heavy 1: QDQLVQSGAEVKKPGASVKVSCKASGFNIKDTYIQWVRQAPGQGLEWMGRIDPLRKQTKYREKFEGRVTITADTSTNTAYMELSSLRSEDTAVYYCVRSGREFDYWGQGTLVTVSSASTKGPSVFPLAPSSKSTSGGTAALGCLVKDYFPEPVTVSWNSGALTSGVHTFPAVLQSSGLYSLSSVVTVPSSSLGTQTYICNVNHKPSNTKVDKKVEPKSCDKTHTCPPCPAPELLGGPDVFLFPPKPKDTLMISRTPEVTCVVVDVSHEDPEVKFNWYVDGVEVHNAKTKPREEQYNSTYRVVSVLTVLHQDWLNGKEYKCKVSNKALPLPEEKTISKAKGQPREPQVCTLPPSRDELTKNQVSLWCLVKGFYPSDIAVEWESNGQPENNYKTTPPVLDSDGSFFLYSKLTVDKSRWQQGNVFSCSVMHEALHNHYTQKSLSLSP
heavy 2: B1 heavy 1 with C348Y, D355C, W365S, L367A, Y406V
light: DIQMTQSPSSLSASVGDRVTITCRASQDIHKYIAWYQQKPGQAPRLLIQYTSTLQPGVPSRFSGSGSGTDYTFTISSLQPEDIATYYCLQYEQLRTFGGGTKVEIKRTVAAPSVFIFPPSDEQLKSGTASVVCLLNNFYPREAKVQWKVDNALQSGNSQESVTEQDSKDSTYSLSSTLTLSKADYEKHKVYACEVTHQGLSSPVTKSFNRGEC
notes: Anti-epiregulin IgG1, knobs-into-holes; S239D/A330L/I332E in both H chains (comparison antibody)
B2: H240-Kn037/H240-Hl036/L73-k0 (antibody, human IgG1, kappa)
heavy 1: B1 heavy 1 with G235A, L329A
heavy 2: B1 heavy 1 with G235A, L329A, C348Y, D355C, W365S, L367A, Y406V
light: B1 light
B3: H240-Kn184/H240-Hl068/L73-k0 (antibody, human IgG1, kappa)
heavy 1: B1 heavy 1 with L233E, L234Y, G235W, D238M, H267D, S297A, A326D, L329A, E331I
heavy 2: QDQLVQSGAEVKKPGASVKVSCKASGFNIKDTYIQWVRQAPGQGLEWMGRIDPLRKQTKYREKFEGRVTITADTSTNTAYMELSSLRSEDTAVYYCVRSGREFDYWGQGTLVTVSSASTKGPSVFPLAPSSKSTSGGTAALGCLVKDYFPEPVTVSWNSGALTSGVHTFPAVLQSSGLYSLSSVVTVPSSSLGTQTYICNVNHKPSNTKVDKKVEPKSCDKTHTCPPCPAPELLGGPSVFLFPPKPKDTLMISRTPEVTCVVVDVSHEEPEVKFNWYVDGVEVHNAKTKPREEQYNSTYRVVSVLTVLHQDWLNGKEYKCKVSNDALPKPIEETISKAKGQPREPQVYTLPPSRCELTKNQVSLSCAVKGFYPSDIAVEWESNGQPENNYKTTPPVLDSDGSFFLVSKLTVDKSRWQQGNVFSCSVMHEALHNHYTQKSLSLSP
light: B1 light
notes: Anti-epiregulin heterodimerized IgG1, knobs-into-holes
B4: H240-Kn203/H240-Hl068/L73-k0 (antibody, human IgG1, kappa)
heavy 1: B1 heavy 1 with L233F, L234Y, G235W, D238M, H267D, S297A, A326D, L329A, E331I
heavy 2: B3 heavy 2
light: B1 light
notes: as for B3
B5: H240-Kn202/H240-Hl076/L73-k0 (antibody, human IgG1, kappa)
heavy 1: B1 heavy 1 with L233E, L234Q, G235W, D238M, H267D, D269E, S297A, L329A, E331I
heavy 2: B3 heavy 2 with K329M
light: B1 light
notes: as for B3
B6: H240-Kn199/H240-Hl068/L73-k0 (antibody, human IgG1, kappa)
heavy 1: B1 heavy 1 with L234Y, G235W, D238M, H267D, S297A, A326D, L329A, E331I
heavy 2: B3 heavy 2
light: B1 light
notes: as for B3
B7: H240-Kn120/H240-Hl068/L73-k0 (antibody, human IgG1, kappa)
heavy 1: B1 heavy 1 with L233Y, L234Y, G235W, D238M, H267D, S297A, A326D, L329A, E331I
heavy 2: B3 heavy 2
light: B1 light
notes: as for B3
B8: H240-Kn208/H240-Hl076/L73-k0 (antibody, human IgG1, kappa)
heavy 1: B1 heavy 1 with L233D, L234Q, G235W, D238M, H267D, D269E, S297A, L329A, E331I
heavy 2: B3 heavy 2 with K329M
light: B1 light
notes: as for B3
B9: H240-Kn207/H240-Hl076/L73-k0 (antibody, human IgG1, kappa)
heavy 1: B1 heavy 1 with L233V, L234Q, G235W, D238M, H267D, D269E, S297A, L329A, E331I
heavy 2: B3 heavy 2 with K329M
light: B1 light
notes: as for B3
B10: H240-Kn201/H240-Hl076/L73-k0 (antibody, human IgG1, kappa)
heavy 1: B1 heavy 1 with L233F, L234Q, G235W, D238M, H267D, D269E, S297A, L329A, E331I
heavy 2: B3 heavy 2 with K329M
light: B1 light
notes: as for B3
B11: H240-Kn204/H240-Hl211/L73-k0 (antibody, human IgG1, kappa)
heavy 1: B1 heavy 1 with L233Y, D238S, K289Y, Y295W, L329A, E331I
heavy 2: B3 heavy 2 with S238D, E269D, D325K, K329M, E333V
light: B1 light
notes: Anti-epiregulin heterodimerized IgG1, knobs-into-holes; L234Y/K290Y/Y296W in one H chain, S239D/A330M/K334V in the other
B12: H240-Kn200/H240-Hl076/L73-k0 (antibody, human IgG1, kappa)
heavy 1: B1 heavy 1 with L233S, L234Q, G235W, D238M, H267D, D269E, S297A, L329A, E331I
heavy 2: B3 heavy 2 with K329M
light: B1 light
notes: as for B3
B13: H240-Kn205/H240-Hl212/L73-k0 (antibody, human IgG1, kappa)
heavy 1: B1 heavy 1 with L233Y, D238S, Y295W, S297C, L329A, E331I
heavy 2: B3 heavy 2 with S238D, E269D, D325K, K329A, E333V
light: B1 light
notes: Anti-epiregulin heterodimerized IgG1, knobs-into-holes; L234Y/Y296W/S298C in one H chain, S239D/K334V in the other
B14: H240-Kn198/H240-Hl076/L73-k0 (antibody, human IgG1, kappa)
heavy 1: B1 heavy 1 with L234Q, G235W, D238M, H267D, D269E, S297A, L329A, E331I
heavy 2: B3 heavy 2 with K329M
light: B1 light
notes: as for B3
B15: H240-Kn189/H240-Hl068/L73-k0 (antibody, human IgG1, kappa)
heavy 1: B1 heavy 1 with L233S, L234Y, G235W, D238M, H267D, S297A, A326D, L329A, E331I
heavy 2: B3 heavy 2
light: B1 light
notes: as for B3

What follows are binders tested against T1, FcgRIIaR (assay: SPR (Biacore); KD of H240-Kn033/H240-Hl033/L73-k0 divided by KD of this variant).
Procedure: (§1) H240-Kn204/H240-Hl211/L73-k0 and H240-Kn205/H240-Hl212/L73-k0 were prepared according to the method of Reference Example 1, by combining H240-Kn204 as one of the H chains and L73-k0 as the L chains with H240-Hl211 as the other H chain, and by combining H240-Kn205 as one of the H chains and L73-k0 as the L chains with H240-Hl212 as the other H chain, and then expressing them. The binding of the prepared variants to FcgRIa, FcgRIIaR, FcgRIIaH, FcgRIIb, FcgRIIIaF, and FcgRIIIaV was measured according to the method of Reference Example 8.
(§2) “fold 2aR”, “fold 2aH”, “fold 2b”, “fold 3aF”, and “fold 3aV” show the relative binding activity of each variant to FcgRIIaR, FcgRIIaH, FcgRIIb, FcgRIIIaF, and FcgRIIIaV, respectively, when the binding activity of H240-Kn033/H240-Hl033/L73-k0, a variant produced by introducing only alterations that promote formation of a heterodimerized antibody into a native IgG1, is defined as 1. Specifically, they are values obtained by dividing the KD value of H240-Kn033/H240-Hl033/L73-k0 for each FcgR by the KD value of an individual variant for each FcgR.
(§3) Analysis of interaction between objective antibody and the FcγR was carried out using Biacore T100 (GE Healthcare), Biacore T200, Biacore A100, and Biacore 4000. HBS-EP+ (GE Healthcare) was used as the running buffer, and the measurement temperature was set to 25° C. Chips produced by immobilizing the antigen peptide by the amine coupling method to a Series S sensor Chip CM5 (GE Healthcare), chips produced by allowing preliminarily biotinylated antigen peptides to interact with and immobilize onto a Series S Sensor Chip SA (certified) (GE Healthcare), chips produced by immobilizing Protein L (ACTIGEN, BioVision) to Series S Sencor Chip CM5 (GE Healthcare), or chips produced by immobilizing Protein A/G (Thermo Scientific) to Series S Sencor Chip CM5 (GE Healthcare) were used. Antibodies of interest were captured onto these chips, and allowed to interact to each FcγR diluted with running buffer.

fold 2aR | Binder
2.2 fold | B1
25.5 fold | B2
27.4 fold | B3
16.1 fold | B4
1.2 fold | B5
37 fold | B6
32.2 fold | B7
1.5 fold | B8
1.1 fold | B9
1 fold | B10
1.2 fold | B11
0.9 fold | B12
1.2 fold | B13
1.2 fold | B14
32.2 fold | B15

Each binder was assayed against T2, FcgRIIaH in the same assay as above.
Procedure: as §1, §2, §3

fold 2aH | Binder
0.8 fold | B1
11.3 fold | B2
7.4 fold | B3
10.6 fold | B4
1.4 fold | B5
19.3 fold | B6
11.8 fold | B7
1.7 fold | B8
3.1 fold | B9
3.7 fold | B10
0.7 fold | B11
2.3 fold | B12
1.4 fold | B13
3.7 fold | B14
10.8 fold | B15

What follows are binders tested against T3, FcgRIIb in the same assay as above.
Procedure: as §1, §2, §3

fold 2b | Binder
5.3 fold | B1
8.7 fold | B2
22 fold | B3
12.2 fold | B4
0.8 fold | B5
25.4 fold | B6
22 fold | B7
1 fold | B8
0.6 fold | B9
0.6 fold | B10
2.5 fold | B11
0.5 fold | B12
2.1 fold | B13
0.5 fold | B14
22 fold | B15

These binders were tested against T4, FcgRIIIaF (human, UniProt P08637 17-208) in the same assay as above.
T4 construct: extracellular domain; also called FcγRIIIa F; 3aF; not shown: His tag attached to the C terminus
T4 sequence (P08637 17-208): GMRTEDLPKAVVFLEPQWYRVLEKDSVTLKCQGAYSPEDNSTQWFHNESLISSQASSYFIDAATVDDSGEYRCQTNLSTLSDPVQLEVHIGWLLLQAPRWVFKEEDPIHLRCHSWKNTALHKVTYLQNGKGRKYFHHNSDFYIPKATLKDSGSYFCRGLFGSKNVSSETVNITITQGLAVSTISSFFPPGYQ
Procedure: as §1, §2, §3

fold 3aF | Binder
31.9 fold | B1
13.8 fold | B2
132 fold | B3
85.3 fold | B4
181 fold | B5
126 fold | B6
121 fold | B7
161 fold | B8
153 fold | B9
161 fold | B10
20.7 fold | B11
121 fold | B12
24.2 fold | B13
193 fold | B14
90.6 fold | B15

Each binder was assayed against T5, FcgRIIIaV (human, UniProt P08637 17-208) in the same assay as above.
T5 construct: extracellular domain; also called FcγRIIIa V; 3aV; not shown: His tag attached to the C terminus
T5 sequence (P08637 17-208 F176V limits assumed): as the sequence (P08637 17-208) above, with F160V counted along it
Procedure: as §1, §2, §3

fold 3aV | Binder
15.5 fold | B1
7.1 fold | B2
141 fold | B3
63.2 fold | B4
126 fold | B5
117 fold | B6
146 fold | B7
120 fold | B8
98 fold | B9
133 fold | B10
6.5 fold | B11
81.4 fold | B12
11.4 fold | B13
88.9 fold | B14
92.3 fold | B15
